Legend:
Assay in all cases: cell-based or functional assay
[1] = biological target: human LepR on Baf3 LepR cells (human) (UniProt P48357)
[2] = biological target: C-terminal HA tagged human Leptin receptor on LepR SIE-Bla cells (human) (UniProt P48357)
[3] = biological target: human FSHR on FSHR CRE-Bla cells (human) (UniProt P23945)
Sequence of human FSHR on FSHR CRE-Bla cells (human) (P23945 18-695): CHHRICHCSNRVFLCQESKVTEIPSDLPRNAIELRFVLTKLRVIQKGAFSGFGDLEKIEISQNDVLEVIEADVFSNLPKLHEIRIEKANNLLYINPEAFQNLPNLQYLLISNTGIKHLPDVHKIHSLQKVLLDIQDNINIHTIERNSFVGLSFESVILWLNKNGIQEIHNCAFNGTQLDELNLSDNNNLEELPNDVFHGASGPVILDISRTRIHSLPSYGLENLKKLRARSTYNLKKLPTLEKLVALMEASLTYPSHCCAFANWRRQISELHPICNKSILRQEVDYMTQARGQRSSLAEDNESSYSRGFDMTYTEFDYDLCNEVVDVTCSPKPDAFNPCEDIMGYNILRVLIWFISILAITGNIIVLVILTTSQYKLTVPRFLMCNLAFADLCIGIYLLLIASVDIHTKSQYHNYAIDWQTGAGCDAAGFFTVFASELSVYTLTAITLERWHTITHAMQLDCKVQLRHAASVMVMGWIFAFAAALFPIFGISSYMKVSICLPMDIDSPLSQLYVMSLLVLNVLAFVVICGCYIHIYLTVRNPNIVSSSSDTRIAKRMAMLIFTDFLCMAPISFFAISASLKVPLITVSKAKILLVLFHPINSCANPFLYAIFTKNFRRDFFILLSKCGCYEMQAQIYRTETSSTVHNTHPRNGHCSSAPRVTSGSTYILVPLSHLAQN

Sequence of C-terminal HA tagged human Leptin receptor on LepR SIE-Bla cells (human) (P48357 22-1165): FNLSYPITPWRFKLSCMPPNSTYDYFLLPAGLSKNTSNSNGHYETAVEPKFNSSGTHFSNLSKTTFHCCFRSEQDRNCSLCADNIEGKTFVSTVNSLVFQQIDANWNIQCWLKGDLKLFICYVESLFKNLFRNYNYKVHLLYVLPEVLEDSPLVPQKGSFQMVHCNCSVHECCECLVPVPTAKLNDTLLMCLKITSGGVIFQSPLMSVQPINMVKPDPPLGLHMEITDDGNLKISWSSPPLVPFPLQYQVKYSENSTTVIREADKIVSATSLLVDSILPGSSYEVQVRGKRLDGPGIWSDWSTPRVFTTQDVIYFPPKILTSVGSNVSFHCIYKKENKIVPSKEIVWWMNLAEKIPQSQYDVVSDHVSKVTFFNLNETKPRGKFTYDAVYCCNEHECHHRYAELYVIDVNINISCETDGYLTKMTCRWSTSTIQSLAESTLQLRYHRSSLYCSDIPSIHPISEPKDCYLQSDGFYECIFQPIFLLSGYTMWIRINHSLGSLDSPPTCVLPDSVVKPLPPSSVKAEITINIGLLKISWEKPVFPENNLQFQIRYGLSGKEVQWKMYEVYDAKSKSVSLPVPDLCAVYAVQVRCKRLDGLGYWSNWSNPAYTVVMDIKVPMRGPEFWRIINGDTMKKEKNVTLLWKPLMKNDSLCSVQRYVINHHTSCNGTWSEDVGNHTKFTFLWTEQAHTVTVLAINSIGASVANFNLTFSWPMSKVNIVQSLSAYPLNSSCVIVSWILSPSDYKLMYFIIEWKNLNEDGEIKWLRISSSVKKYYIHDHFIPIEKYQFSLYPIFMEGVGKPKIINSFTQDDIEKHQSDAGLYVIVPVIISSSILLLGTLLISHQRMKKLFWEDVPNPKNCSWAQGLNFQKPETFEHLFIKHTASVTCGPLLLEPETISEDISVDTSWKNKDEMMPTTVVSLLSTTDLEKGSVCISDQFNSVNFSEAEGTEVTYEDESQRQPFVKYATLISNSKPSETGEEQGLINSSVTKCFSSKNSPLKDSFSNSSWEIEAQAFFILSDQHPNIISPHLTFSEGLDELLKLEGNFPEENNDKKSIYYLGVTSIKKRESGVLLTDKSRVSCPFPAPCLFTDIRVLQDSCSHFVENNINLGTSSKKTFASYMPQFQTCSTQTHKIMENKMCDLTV
Sequence of human LepR on Baf3 LepR cells (human) (P48357 22-1165): as above

EC50, proliferation assay using the Baf3 LepR cell line [1] | EC50, FRET assay using the beta-lactamase-based LepR SIE-Bla cell line [2] | response ratio in a fluorescence resonance energy transfer (FRET) assay, LepR SIE-Bla cells [2] | EC50, FRET assay using the beta-lactamase-based FSHR CRE-Bla cell line [3] | Substance
0.31 nM | 0.313 nM | 8.5 | – | recombinant human Leptin protein (from UniProt P41159 22-167) (ligand)
– | – | – | 0.0057 nM | single chain FSH (from UniProt P01225 19-129; P01215 25-116) (ligand)
